From US6660837B1, “Modified protein derived from protein kinase N” (Kirin Beer Kabushiki Kaisha, priority 1995, dated 2003)

How the values were obtained:
[1] = biological target: T1, carboxyl-terminal catalytic region of PKN (Homo sapiens, UniProt Q16512); assay: In vitro binding, regulatory with catalytic region of PKN (GST pull-down)
T1 construct: made in house; host or cells: in vitro translation in reticulocyte lysate (Promega)
From the text: Truncated human PKN was made as follows; expression vector pPKN-N for amino-terminal region of PKN was made by digesting phPKN-H4 (human PKN cDNA inserted in pBluescript II SK) (Mukai, H. & Ono, Y., Biochem. Biophys. Res. Commun. 199, 897-904 (1994)) with BstEII, and filling-in both the ends with T4 DNA polymerase, and self-ligation. The resulting plasmid codes for amino acid residues of PKN from 1 to 474 in SEQ ID NO: 1. cDNA insert from this plasmid was cloned into pRc/CMV (Invitrogen Corp.). Fragment coding for the amino acids 614-942, in SEQ ID NO: 1, containing the catalytic domain of human PKN was made by PCR amplification. Expression vector pPKN-C for the carboxyl-terminal region of PKN was made by subcloning this fragment into pRc/CMV. These plasmids were linealized by cutting with XbaI, and cRNA was transcribed using T7 RNA polymerase. cRNA was translated in a […] reticulocyte lysate (Promega) in the presence of [^35S] methionine. […]
In vitro translated PKN-N or PKN-C (2.5 μl) was mixed with 5 μg of each GST-PKN-N or GST-PKN-C fusion protein or 25 μg of GST alone in 400 μl of GST binding buffer [20 mM Tris/HCl (pH 7.5), 0.5 mM DTT, 150 mM NaCl, 0.05% Triton X-100, 1 mM EDTA, 1 μg/ml leupeptin] and incubated for 1 hr at 4° C. […] Quantification of the binding reactions was carried out by a BAS 1000 bio-imaging analyzer (FUJI).

[2] = tested on: head-rod domain of NF subunit (NFL, NFM, NFH); assay: Yeast two-hybrid, PKN N-terminal region with NF head-rod domains; assay type: binding; conditions: lacZ expression
Procedure: Specificity of the interaction between PKN and various NFs was investigated by measuring the ability of the two-hybrid constructs, pBTM116(Vojtek, A. B. et al., Cell, 74, 205-214 (1993)) (instead of pGBT9)-PKN and pVP16 (Vojtek, A. B. et al., Cell, 74, 205-214 (1993)) (instead of pGAD10)-NF or in reverse, to support lacZ expression in L40 cells.
Yeast expression vectors were prepared as follows. Yeast expression vector pVP/NFL#21 for the VP16 transcription activation domain-head-rod domain of human NFL was made by subcloning a EcoRI insert (amino acid sequence 1-349) of a library plasmid #21 originally isolated from two-hybrid screening into pVP16 vector (Vojtek, A. B. et al., Cell, 74, 205-214 (1993)). Yeast expression vectors for the VP16 transcription activation domain—tail domain of NFL and NFH or the VP16 transcription activation domain—head-rod domain or tail domain of NFM were constructed by subcloning BamHI/NotI insert of pGST/NFLt, pGST/NFHt, pGST/NFMhr, and pGST/NFMt (described in Example 8) into pVP16 in frame, respectively (designated respectively as pVP/NFLt, pVP/NFHt, pVP/NFMhr, and pVP/NFMt). […]

T1 sequence (Q16512 614-942): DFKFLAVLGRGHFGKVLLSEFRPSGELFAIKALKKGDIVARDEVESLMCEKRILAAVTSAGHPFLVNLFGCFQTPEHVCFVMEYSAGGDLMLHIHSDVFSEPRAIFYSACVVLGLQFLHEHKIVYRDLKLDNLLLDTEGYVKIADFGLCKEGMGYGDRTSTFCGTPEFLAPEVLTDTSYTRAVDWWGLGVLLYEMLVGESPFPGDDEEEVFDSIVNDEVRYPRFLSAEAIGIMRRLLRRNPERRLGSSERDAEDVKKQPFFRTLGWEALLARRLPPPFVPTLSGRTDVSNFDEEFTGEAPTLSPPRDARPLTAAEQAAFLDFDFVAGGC

- binding to carboxyl-terminal catalytic region of PKN in vitro [1]: directly binds
- binding to head-rod domain of each NF subunit in two-hybrid system [2]: bound
Substance: N-terminal region of PKN: N-terminal regulatory region of human PKN: 1-540 (PKNN1) in two-hybrid and GST fusions, 1-474 when in vitro translated
